# Changes are numbered by the printed parent chain. Numbers in names are those of the source.
# B1: H18Y/M47L/V68M/D90G (protein)
# chain: VIHVTKEVKEVATLSCGYNVSVEELAQTRIYWQKEKKMVLTMMSGDLNIWPEYKNRTIFDITNNLSIMILALRPSDEGTYECVVLKYEKGAFKREHLAEVTLSVKAD
# B2: H18Y/A26E/M47L/A71G (protein)
# chain: B1 chain with A26E, M68V, A71G, G90D
# B3: H18Y/E35D/A71G/D90G (protein)
# chain: B1 chain with E35D, L47M, M68V, A71G
# B4: H18Y/A26E/V68M/D90G (protein)
# chain: B1 chain with A26E, L47M
# B5: H18Y/A26E/V68M/A71G (protein)
# chain: B1 chain with A26E, L47M, A71G, G90D
# B6: H18C/A26P/E35D/M47L/V68M/A71G (protein, UniProt P33681 35-288, looked up, variant H18C A26P E35D M47L V68M A71G)
# T-lymphocyte activation …: VIHVTKEVKEVATLSCGCNVSVEELPQTRIYWQKDKKMVLTMMSGDLNIWPEYKNRTIFDITNNLSIMILGLRPSDEGTYECVVLKYEKDAFKREHLAEVTLSVKADFPTPSISDFEIPTSNIRRIICSTSGGFPEPHLSWLENGEELNAINTTVSQDPETELYAVSSKLDFNMTTNHSFMCLIKYGHLRVNQTFNWNTTKQEHFPDNLLPSWAITLISVNGIFVICCLTYCFAPRCRERRRNERLRRESVRPV
# B7: H18L/A26N/D46E/V68M/A71G/D90G (protein, UniProt P33681 35-288, looked up, variant H18L A26N D46E V68M A71G D90G)
# T-lymphocyte activation …: B6 T-lymphocyte activation … with C18L, P26N, D35E, D46E, L47M, D90G
# Biological target: T1, CD28 (Homo sapiens, UniProt P10747)
# Experiment: Flow binding to Jurkat/IL2 reporter cells (CD28)
# Design: host or cells: Jurkat cells expressing an IL-2-luciferase reporter
# Conditions: Table E20; Jurkats (CD28); 33.3 nM
# Procedure, shortened: (§1)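 Fusion proteins bound to CHO cells stably expressing CTLA4 or PD-L1, or to Jurkat/IL2 reporter cells with endogenous CD28, for 45 min on ice after blocking in PBS/1% BSA. Detection with PE anti-human Fc by flow cytometry; PE MFI per cell type and binding EC50 determined.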
row,CD28 MFI at 33.3 nM,Molecule
1,3795,B1
2,611,B2
3,1310,B3
4,2394,B4
5,99.4,B5

# Same assay, conditions: Table E20; MFI at 33.3 nM relative to CD80 WT IgV-Fc
row,CD28 Fold change to WT CD80,Molecule
1,86.4 fold,B1
2,13.9 fold,B2
3,29.8 fold,B3
4,54.5 fold,B4
5,2.3 fold,B5

# Same assay, conditions: Table E23; CD80 IgV-Fc (inert) at 33.3 nM; Jurkat (CD28)
row,CD28 MFI at 33.3 nM,Molecule
1,1906,B6
2,7253,B7

# Same assay, conditions: Table E23; MFI at 33.3 nM relative to CD80 WT IgV-Fc
row,CD28 Fold change to WT CD80,Molecule
1,18.7,B6
2,71.1,B7

# Biological target: huCTLA4 (Homo sapiens, UniProt P16410)
# Sequence (P16410 36-223): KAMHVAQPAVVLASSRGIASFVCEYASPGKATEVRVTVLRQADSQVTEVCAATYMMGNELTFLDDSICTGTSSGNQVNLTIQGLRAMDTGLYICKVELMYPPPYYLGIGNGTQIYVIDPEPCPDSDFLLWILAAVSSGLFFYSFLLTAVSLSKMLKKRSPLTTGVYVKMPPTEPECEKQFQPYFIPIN
# Experiment: Flow binding to CHO cells stably expressing CTLA4
# Design: huCTLA4 and huPD-L1, full-length mammalian surface expression constructs were generated; expressed in transfected cells; host or cells: CHO cells, lentiviral transduction, sorted to >98% purity
# Conditions: Table E20; CHO cells stably expressing CTLA4; 33.3 nM
# Procedure, shortened: as §1
row,CTLA4 MFI at 33.3 nM,Molecule
1,19006,B1
2,22108,B2
3,25886,B3
4,25794,B4
5,11323,B5

# Same assay, conditions: Table E20; MFI at 33.3 nM relative to CD80 WT IgV-Fc
row,CTLA4 Fold change to WT CD80,Molecule
1,14.0 fold,B1
2,16.3 fold,B2
3,19.0 fold,B3
4,19.0 fold,B4
5,8.3 fold,B5

# Same assay, conditions: Table E23; CD80 IgV-Fc (inert) at 33.3 nM; CHO cells stably expressing CTLA4
row,CTLA4 MFI at 33.3 nM,Molecule
1,23371,B6
2,17045,B7

# Same assay, conditions: Table E23; MFI at 33.3 nM relative to CD80 WT IgV-Fc
row,CTLA4 Fold change to WT CD80,Molecule
1,16.9,B6
2,12.3,B7

# Biological target: huPD-L1 (Homo sapiens, UniProt Q9NZQ7)
# Sequence (Q9NZQ7 19-290): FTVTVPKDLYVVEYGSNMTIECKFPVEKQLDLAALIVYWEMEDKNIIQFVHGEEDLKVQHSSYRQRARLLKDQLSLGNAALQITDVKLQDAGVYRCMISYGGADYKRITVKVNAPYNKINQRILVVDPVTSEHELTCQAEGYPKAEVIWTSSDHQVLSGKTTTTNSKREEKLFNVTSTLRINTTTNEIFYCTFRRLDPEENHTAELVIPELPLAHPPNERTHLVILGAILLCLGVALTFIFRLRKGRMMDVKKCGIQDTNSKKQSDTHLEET
# Experiment: Flow binding to CHO cells stably expressing PD-L1
# Design: huCTLA4 and huPD-L1, full-length mammalian surface expression constructs were generated; expressed in transfected cells; host or cells: CHO cells, lentiviral transduction, sorted to >98% purity
# Conditions: Table E20; CHO cells stably expressing PD-L1; 33.3 nM
# Procedure, shortened: as §1
row,PD-L1 MFI at 33.3 nM,Molecule
1,21768,B1
2,15563,B2
3,8524,B3
4,12845,B4
5,6866,B5

# Same assay, conditions: Table E20; MFI at 33.3 nM relative to CD80 WT IgV-Fc
row,PD-L1 Fold change to WT CD80,Molecule
1,499.3 fold,B1
2,356.9 fold,B2
3,195.5 fold,B3
4,294.6 fold,B4
5,157.5 fold,B5

# Same assay, conditions: Table E20; ratio of MFI at 33.3 nM
row,Ratio of PDL1:CD28,Molecule
1,5.7,B1
2,25.5,B2
3,6.5,B3
4,5.4,B4
5,69.1,B5

# Same assay, conditions: Table E23; CD80 IgV-Fc (inert) at 33.3 nM; CHO cells stably expressing PD-L1
row,PD-L1 MFI at 33.3 nM,Molecule
1,67010,B6
2,67999,B7

# Same assay, conditions: Table E23; MFI at 33.3 nM relative to CD80 WT IgV-Fc
row,PD-L1 Fold change to WT CD80,Molecule
1,406.1,B6
2,412.1,B7

# Same assay, conditions: Table E23; ratio of MFI at 33.3 nM
row,Ratio of PDL1:CD28,Molecule
1,35.2,B6
2,9.4,B7

# Biological target: T1, CD28
# Experiment: Jurkat/IL2 + CHO/OKT3 +/- PD-L1 reporter assay: PD-L1-dependent CD28 costimulation
# Assay type: cell-based
# Design: host or cells: Jurkat cells expressing an IL-2-luciferase reporter
# Conditions: Table E22; Jurkat/IL2 + CHO/OKT3/PD-L1; 5.0 nM
# Procedure, shortened: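 Jurkat reporter cells (100,000/well) preincubated 15 min at room temperature with test protein, then cocultured 5 h at 37 °C with CHO aAPCs bearing anti-CD3 scFv (OKT3) with or without PD-L1. Luciferase luminescence (RLU) read after lysis-substrate addition.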
row,Fold Increase over WT CD80-IgV-Fe,Molecule
1,2.14 fold,B1
2,2.84 fold,B2
3,3.81 fold,B3
4,2.90 fold,B4
5,1.20 fold,B5

# Same assay, conditions: Table E22; Jurkat/IL2 + CHO/OKT3/PD-L1; CD80 Conc 5.0 nM
row,"Relative Luciferase Units (RLU), CD80 Conc 5.0 nM",Molecule
1,834 RLU,B1
2,1107 RLU,B2
3,1487 RLU,B3
4,1131 RLU,B4
5,469 RLU,B5

# Same assay, conditions: Table E24; Jurkat/IL2 + CHO/OKT3/PD-L1; 5.0 nM
Fold Increase over WT CD80-IgV-Fe,"Relative Luciferase Units (RLU), CD80 Conc 5.0 nM",Molecule
5.5,936 RLU,B6
4.8,815 RLU,B7

# — patent US20220177587A1, “METHODS AND USES OF VARIANT CD80 FUSION PROTEINS AND RELATED CONSTRUCTS” (Alpine Immune Sciences, Inc., priority 2018, published 2022)
